“Also recorded” adds a separate entry of the source. Square brackets hold non-standard residues; d marks the D form. Ends that are not written are not given here.
T1: IL-23 receptor (Homo sapiens, UniProt Q5VWK5)
T1 sequence (Q5VWK5 24-629): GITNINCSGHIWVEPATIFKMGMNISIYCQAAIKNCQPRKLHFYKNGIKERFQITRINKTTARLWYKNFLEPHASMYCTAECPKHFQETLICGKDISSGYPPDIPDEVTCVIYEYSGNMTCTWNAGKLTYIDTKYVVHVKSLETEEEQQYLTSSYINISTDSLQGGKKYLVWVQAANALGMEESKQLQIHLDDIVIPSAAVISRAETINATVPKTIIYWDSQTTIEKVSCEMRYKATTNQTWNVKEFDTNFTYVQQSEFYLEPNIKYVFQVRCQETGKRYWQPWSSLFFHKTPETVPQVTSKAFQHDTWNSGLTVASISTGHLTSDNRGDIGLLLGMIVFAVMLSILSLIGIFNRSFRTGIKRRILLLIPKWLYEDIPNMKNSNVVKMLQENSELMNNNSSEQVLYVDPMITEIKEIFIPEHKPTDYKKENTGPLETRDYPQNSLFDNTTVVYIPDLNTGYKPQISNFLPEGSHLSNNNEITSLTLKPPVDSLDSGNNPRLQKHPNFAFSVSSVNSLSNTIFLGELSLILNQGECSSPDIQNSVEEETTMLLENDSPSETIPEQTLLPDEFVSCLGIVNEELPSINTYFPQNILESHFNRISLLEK

T2: IL-23R (Mus musculus, UniProt Q8K4B4)
T2 construct: Spleens were sterilely removed from mice, sliced, and mashed in the presence of PBS buffer; from tissue; host or cells: mouse spleen: freshly isolated splenocytes, and CD4+ cells differentiated into TH17 cells
T2 sequence (Q8K4B4 24-644): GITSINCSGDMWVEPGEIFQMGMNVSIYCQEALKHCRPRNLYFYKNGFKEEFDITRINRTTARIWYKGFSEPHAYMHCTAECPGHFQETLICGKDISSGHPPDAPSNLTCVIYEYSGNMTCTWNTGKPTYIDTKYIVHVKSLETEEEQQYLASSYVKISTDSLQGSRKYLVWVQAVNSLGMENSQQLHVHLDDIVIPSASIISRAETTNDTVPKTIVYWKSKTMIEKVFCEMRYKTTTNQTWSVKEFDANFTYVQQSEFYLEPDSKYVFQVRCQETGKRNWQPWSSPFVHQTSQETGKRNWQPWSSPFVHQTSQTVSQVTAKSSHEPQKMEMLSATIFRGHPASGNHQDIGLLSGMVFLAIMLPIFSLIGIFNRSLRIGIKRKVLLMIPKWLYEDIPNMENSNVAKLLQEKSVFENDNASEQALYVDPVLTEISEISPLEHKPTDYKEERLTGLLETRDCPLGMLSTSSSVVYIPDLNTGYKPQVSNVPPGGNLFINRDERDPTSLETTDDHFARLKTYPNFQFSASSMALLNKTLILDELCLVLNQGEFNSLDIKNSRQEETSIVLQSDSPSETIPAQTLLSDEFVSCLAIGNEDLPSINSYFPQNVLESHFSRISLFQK

T3: human IL-23 receptor (IL-23R) on PMA-activated HL-60 human monocytes (human, UniProt Q5VWK5 24-629)
T3 sequence (looked up): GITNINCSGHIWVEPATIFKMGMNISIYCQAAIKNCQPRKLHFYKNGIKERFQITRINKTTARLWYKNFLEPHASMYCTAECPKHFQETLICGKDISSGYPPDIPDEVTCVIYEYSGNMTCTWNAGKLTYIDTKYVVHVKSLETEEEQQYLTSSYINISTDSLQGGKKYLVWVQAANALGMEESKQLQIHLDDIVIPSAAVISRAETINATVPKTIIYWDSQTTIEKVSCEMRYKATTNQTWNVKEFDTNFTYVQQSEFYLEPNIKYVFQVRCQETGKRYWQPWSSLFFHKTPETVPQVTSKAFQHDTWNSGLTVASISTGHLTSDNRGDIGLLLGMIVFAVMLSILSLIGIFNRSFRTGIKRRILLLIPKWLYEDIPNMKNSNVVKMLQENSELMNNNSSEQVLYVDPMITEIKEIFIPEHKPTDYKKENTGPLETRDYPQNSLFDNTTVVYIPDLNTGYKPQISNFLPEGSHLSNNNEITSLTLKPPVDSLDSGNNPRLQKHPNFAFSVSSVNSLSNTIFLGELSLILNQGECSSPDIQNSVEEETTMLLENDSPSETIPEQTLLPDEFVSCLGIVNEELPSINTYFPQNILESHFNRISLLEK

T4: mouse IL-23 receptor (IL-23R) on mouse splenocytes and differentiated TH17 cells (mouse, UniProt Q8K4B4 24-644)
T4 sequence (looked up): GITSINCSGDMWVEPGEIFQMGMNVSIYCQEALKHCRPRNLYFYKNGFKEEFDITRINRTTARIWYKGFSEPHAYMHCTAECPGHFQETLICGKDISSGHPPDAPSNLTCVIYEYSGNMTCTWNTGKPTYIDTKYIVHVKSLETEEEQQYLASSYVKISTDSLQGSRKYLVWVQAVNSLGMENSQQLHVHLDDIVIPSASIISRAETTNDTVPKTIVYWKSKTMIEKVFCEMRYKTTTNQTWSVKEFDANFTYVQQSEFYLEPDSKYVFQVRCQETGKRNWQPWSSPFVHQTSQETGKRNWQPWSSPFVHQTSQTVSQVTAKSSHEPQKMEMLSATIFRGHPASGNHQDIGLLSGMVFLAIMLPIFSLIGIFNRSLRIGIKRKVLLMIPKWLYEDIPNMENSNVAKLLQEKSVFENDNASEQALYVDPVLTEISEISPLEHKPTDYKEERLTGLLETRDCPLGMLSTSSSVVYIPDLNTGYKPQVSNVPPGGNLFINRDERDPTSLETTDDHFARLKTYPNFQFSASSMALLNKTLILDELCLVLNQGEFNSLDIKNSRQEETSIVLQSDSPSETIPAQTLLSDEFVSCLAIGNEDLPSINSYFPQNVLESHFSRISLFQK


Key:
[1] = target: T1, IL-23 receptor; experiment: IL-23-induced STAT3 phosphorylation in PMA-activated HL-60 monocytes (Western blot); format: cell-based; parameters: endogenous in cells; details: PMA-activated HL-60 human monocytes; peptide 1 μM, 30 min pre-incubation; IL-23 10 ng/ml, 15 min
Experimental: FIG. 2 is a graph showing the results of efficacy screening of peptides designed from the IL-23 receptor. HL-60 human monocytes were pre-incubated for 30 minutes with the particular peptides (1 μM) and stimulated for 15 minutes with IL-23 (10 ng/ml). Western Blot analysis of phosphorylated-STAT3 and total STAT3 was performed on cell lysates. Immunoblot densitometry was measured using ImagePro4+ software. […] FIGS. 3A and 3B are graphs showing inhibition of IL-23-induced STAT3 phosphorylation and TNFα generation. […] Western Blot analysis was performed on cell lysates, and immunoblot densitometry was measured using ImagePro4+ software. […] TNFα production was quantified by ELISA 24 hours after stimulation with IL-23 using the Quantikine ELISA Kit (R&D systems). […] D-peptides 2303, 2305, 2307 and 2309 (1 μM) inhibit IL-23-induced STAT3 phosphorylation in phorbol 12-myristate 13-acetate (PMA)-activated human monocytes (HL-60) (FIG. 2).

[2] = target: T2, IL-23R; experiment: IL-23-induced STAT3 phosphorylation in freshly isolated splenocytes (Alpha Screen SureFire p-STAT-3); format: cell-based
Experimental: Spleens were sterilely removed from mice, sliced, and mashed in the presence of PBS buffer, 2% fetal bovine serum, and 1 mM EDTA. Tissue was allowed to pass through a number 26 syringe and was filtered through a 70 μm mesh nylon strainer. Cells were cultured with non-essential amino acids, 2 μg/ml of anti-CD3, and 20 μg/ml of anti-CD-28 as survival and differentiation factors.
Splenocytes or TH17 cells were distributed in 384-well plates (Optiplate; Perkin Elmer) (100,000 cells/well). Cells were pre-incubated for 30 minutes with different concentrations of peptide APG-2305 or APG-2309 and incubated with 25 ng/ml of IL-23 (R&D systems) for 10 minutes. STAT3 phosphorylation was determined with the kit Alpha Screen SureFire p-STAT-3 assay from Perkin Elmer according to manufacturer's instructions. Briefly, after incubation with IL-23, cells were lysed and contacted with (1) protein A acceptor conjugated beads coated with anti-p-STAT-3 (Tyr705) and (2) streptavidin-coated donor beads. The resulting signal was measured with a Perkin Elmer Wallac En vision 2104 Multilabel reader. Graphs were generated using GraphPrism 4 software.
The effect of peptide APG-2305 and APG-2309 derivatives on IL-23-induced STAT3 phosphorylation was determined using CD-1 mice freshly isolated splenocytes and the Alpha Screen p-STAT3 assay (see above materials and methods) (FIGS. 6 and 7). […] As described herein, based on the efficacy of derivatives, we have identified regions in APG-2305 and APG-2309 peptides that are important for their ability to affect IL-23R activity.

[3] = target: T3, human IL-23 receptor (IL-23R) on …; experiment: cell-based or functional assay
[4] = target: T4, mouse IL-23 receptor (IL-23R) on mouse …; experiment: cell-based or functional assay
[5] = mouse splenocytes (FIGS. 6 and 7)

| activity of derivative compared to parent peptide, STAT3 phosphorylation assay [2, 5] | Molecule | further results |
| --- | --- | --- |
|  | KKYLVWVQ [Peptide 2307] | effect on IL-23-induced STAT3 phosphorylation [1]: antagonize IL-23-induced STAT3 phosphorylation; also recorded: demonstrable efficacy; also recorded: inhibit |
| abolished the activity | TEEEQQ [Peptide 2305-9] |  |
| abolished the activity | TEEEQQY [Peptide 2305-8] |  |
| increased the activity | TEEEQ [Peptide 2305-10] |  |
| increases the activity | ESKQLQL [Peptide 2309-3] |  |
| increased the activity | TEEE [Peptide 2305-11] |  |
| measurable loss of activity | EQQYL [Peptide 2305-6] |  |
|  | LPDEVTCV [Peptide 2303] | effect on IL-23-induced STAT3 phosphorylation [1]: antagonize IL-23-induced STAT3 phosphorylation; also recorded: demonstrable efficacy; also recorded: inhibit |
| measurable loss of activity | EEQQYL [Peptide 2305-5] |  |
|  | DLSSGYPPDI [Peptide 2301] | effect on IL-23-induced STAT3 phosphorylation [1]: agonistic properties; also recorded: agonist of IL-23R biological activity |
| total loss of activity | TEEAQQYL [Peptide 2305-1] |  |
|  | VQAANALGMEESKQLQLHLDDLVL [Peptide 2309-1-1, extended region of peptide 2309 covering part of the loop in D3 domain of IL-23R] | inhibition of STAT3 phosphorylation by derivative ([2]; mouse splenocytes (FIG. 7)): 100%; increase in activity relative to the parent peptide [2, 5]: 50% |
| increases the activity | MAESKQLQL [Peptide 2309-1] |  |
|  | [dM][dE][dE][dS][dK][dQ][dL][dQ][dL] [peptide APG-2309] | inhibition of IL-23-induced STAT3 phosphorylation in PMA-activated HL-60 monocytes, IC50 [3]: 2 nM; inhibition of IL-23-induced tumor necrosis factor (TNF) formation in PMA-activated HL-60 monocytes (ELISA), IC50 [3]: 1.6 nM; IC50 for IL-23-induced STAT3 phosphorylation in mouse splenocytes (25 ng/ml mouse IL-23) [4]: 2 nM |
|  | TEEEAAYL [APG-2305-13] | inhibition of IL-23-induced STAT3 phosphorylation in mouse splenocytes (FIG. 6), change relative to parent 2305 [4]: 25% |

| Molecule | activity of derivative compared to parent peptide, STAT3 phosphorylation assay [2, 5] | further results |
| --- | --- | --- |
| LVLDDLHLQLQKSEEMGLANAAQV (not fully specified (some residues); also: D-amino acids, extent not given here) [Peptide 2309-2-1] | better efficacy than the parent 2309 peptide |  |

Source: patent US20100190710A1, “IL-23 RECEPTOR ANTAGONISTS AND USES THEREOF” (Valorisation HSJ, Societe en Commandite, priority 2007, published 2010)
